# Measurements from patent US20160097044A1, “Antimicrobial Enzyme Fusions Reduce Resistance and Kill Intracellular Staphylococcus aureus” (The United States of America, as Represented by the …, priority 2014, published 2016).
# “Also recorded” adds a separate entry of the source.
# What was measured:
# Type in all cases: cell-based
# [1] = system: intracellular S. aureus strain UAMS-1 in primary mouse-derived osteoblasts (mOBs); test: Intracellular S. aureus eradication assay in murine osteoblasts; conditions: mOB, 5 μg/ml, 2 h
# From the text: FIGS. 5a-5e depict peptidoglycan hydrolase-protein transduction domain (PGH-PTD) eradication of intracellular S. aureus in cultured cells. Cultured cells were infected, treated with gentamicin to kill extracellular S. aureus, and then treated with the peptidoglycan hydrolases indicated. All results are standardized to the gentamicin (GENT) only control. Nomenclature of the peptidoglycan hydrolase constructs is as in FIG. 1. Asterisks indicate statistical significance detected with single factor ANOVA (α=0.05) with paired t-test posthoc analyses α=0.05 adjusted with Sidák correction for multiple comparisons (for all cases p<0.01). […] Error bars represent SEM. […] Yellow staining in the combined panel represents intracellular co-localization (in a single plane as determined by z-stack analysis) of both S. aureus and K-L-PTD1 (blue arrow). […]
# Three similar intracellular S. aureus eradication assays from three different labs were optimized for (A) a cultured bovine mammary epithelial cell line (MAC-T, Nexia Biotechnologies, Quebec, Canada; Almeida, supra), (B) primary C57BL/6 mouse-derived osteoblasts (mOBs) (McCall et al. 2008. J. Bone Miner. Res. 23: 30-40) or (C) human brain microvascular endothelial cells (hBMEC; Stins, supra). […] The cell lysate was subjected to serial dilution plating, and the resultant CFUs were counted and normalized to the gentamicin control for each assay. […]
# S. aureus Newbould 305 = test: Turbidity reduction assay; conditions: 1 μM enzyme, cells at OD600nm 1.0, FIG. 6a
# Experimental: FIG. 6a depicts the specific activity of peptidoglycan hydrolase fusion constructs in vitro in a turbidity reduction assay with S. aureus Newbould 305 resuspended in lysis buffer to an OD600nm of 1.0 and treated with 1 μM final concentrations of each peptidoglycan hydrolase. The maximum specific activity for three experiments are represented as an average with SEM error bars. FIG. 6b depicts the bacterial burden in mice with mastitis treated with recombinant peptidoglycan hydrolases. Colony Forming Units (CFUs) from infected murine mammary glands following a single treatment with 50 μl of 25 μM peptidoglycan hydrolase (1.25 nmol). Each data point represents the average of duplicate bacterial platings. The horizontal bars represent the average CFU/mg for each group. FIG. 6c illustrates the TNFα response in mice with mastitis that were treated with peptidoglycan hydrolases. Data represents a minimum of 7 measurements in duplicate. Log TNFα was used for statistical analysis. Single asterisks indicate a significant difference from buffer control (p<0.05); double asterisks indicate a significant difference from the parental enzyme (p<0.05).
# FIG. 7 depicts a turbidity reduction assay of select peptidoglycan hydrolases against S. aureus Newbould 305. Bacterial cells were resuspended in lysis buffer to an OD600nm of 1.0 and lysed with 1 μM final concentrations of each peptidoglycan hydrolase. The maximum rate of ΔOD of three experiments are represented as an average with error bars representing SEM. Double asterisks indicate significant difference from parental. Mean comparisons were performed with one way ANOVA (P=3.3×10^−5) with t test post hoc analysis with Sidák adjusted alpha (p<0.01).
# [2] = system: post-treatment isolates of S. aureus ALR; test: Resistance of isolates recovered from nares of treated rats (plate lysis, MIC)
# Experimental: The Minimum Inhibitory Concentrations (MIC) of each protein for multiple S. aureus strains was determined as previously described (Jones et al. 1985. In: Manual of Clinical Microbiology, Eds. Balows et al. American Society of Microbiology, Washington D.C., pp. 972-977) with the following modifications. Enzymes were serially diluted two fold across a 96 well plate, such that after dilution, 50 μl of the enzyme solution in 300 mM NaCl, 50 mM NaH2PO4, 30% glycerol pH 7.5, remained in each well. To each well was added 50 μl of TSB and 100 μl of S. aureus Newman in TSB (diluted to 5×10^6 cells/ml). The plates were incubated 20 h at 37° C. and read with a 96 well plate reader. MIC determination values were reported as the median of ≧4 replicates (Table 1).
Molecule,intracellular S. aureus CFUs relative to gentamicin only control [1],turbidity reduction (in vitro lytic) activity (S. aureus Newbould 305),"MIC of 8 post-treatment isolates ([2]; isolates from rats treated with triple fusion L-K, N=32)","resistance of colonies recovered from nares of treated rats ([2]; plate lysis analysis, N=22 colonies)"
"K-L: both LysK lytic domains fused to the N-terminus of lysostaphin; SEQ ID NO:5, protein SEQ ID NO:6",reduced the intracellular bacteria recovered,slightly more effective at lysing S. aureus strain Newbould 305 than lysostaphin,,
"L-K: LysK lytic domains inserted between lysostaphin's M23 endopeptidase domain and SH3b cell wall binding domain; SEQ ID NO:7, protein SEQ ID NO:8 (protein, Staphylococcus simulans & Phage K) MAATHEHSAQWLNNYKKGYGYGPYPLGINGGMHYGVDFFMNIGTPVKAISSGKIVEAGWSNYGGGNQIGLIENDGVHRQWYMHLSKYNVKVGDYVKAGQIIGWSGSTGYSTAPHLHFQRMVNSFSNSTAQDPMPFLKSAGYGKAGGTVTPTPNTGLDAKTQAEINKRLDAYAKGTVDSPYRVKKATSYDPSFGVMEAGAIDADGYYHAQCQDLITDYVLWLTDNKVRTWGNAKDQIKQSYGTGFKIHENKPSTVPKKGWIAVFTSGSYEQWGHIGIVYDGGNTSTFTILEQNWNGYANKKPTKRVDNYYGLTHFIEIPVKAGTTVKKETAKKSASKTPAPKKKATLKVSKNHINYTMDKRGKKPEGMVIHNDAGRSSGQQYENSLANAGYARYANGIAHYYGSEGYVWEAIDAKNQIAWHTGDGTGANSGNFRFAGIEVCQSMSASDAQFLKNEQAVFQFTAEKFKEWGLTPNRKTVRLHMEFVPTACPHRSMVLHTGFNPVTQGRPSQAIMNKLKDYFIKQIKNYMDKGTSSSTVVKDGKTSSASLDTVTPTPNTGWKTNKYGTLYKSESASFTPNTDIITRTTGPFRSMPQSGVLKAGQTIHYDEVMKQDGHVWVGYTGNSGQRIYLPVRTWNKSTNTLGVLWGTIKLEHHHHHH",,,7.0 ± 2.4 µg/mL,not more resistant than the parental strain; also recorded: no in vivo resistance development detected
